T1: human Ang-2443 (human, UniProt O15123 19-496)
T1 construct: Splice variant missing amino acids 96-148; supernatant of transfected 293F cells
T1 sequence: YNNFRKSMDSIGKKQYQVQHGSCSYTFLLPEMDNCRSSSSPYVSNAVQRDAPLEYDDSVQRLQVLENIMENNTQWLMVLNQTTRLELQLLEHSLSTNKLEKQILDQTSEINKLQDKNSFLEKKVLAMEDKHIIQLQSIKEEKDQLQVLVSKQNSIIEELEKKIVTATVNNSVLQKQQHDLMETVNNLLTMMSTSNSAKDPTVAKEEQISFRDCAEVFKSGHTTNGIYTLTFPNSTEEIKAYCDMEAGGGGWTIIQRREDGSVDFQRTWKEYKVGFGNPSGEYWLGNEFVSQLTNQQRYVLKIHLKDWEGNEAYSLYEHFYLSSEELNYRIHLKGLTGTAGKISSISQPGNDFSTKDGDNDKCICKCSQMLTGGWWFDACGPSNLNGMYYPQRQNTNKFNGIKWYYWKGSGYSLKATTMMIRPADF

T2: human Ang-2 V345M (human, UniProt O15123 19-496)
T2 sequence: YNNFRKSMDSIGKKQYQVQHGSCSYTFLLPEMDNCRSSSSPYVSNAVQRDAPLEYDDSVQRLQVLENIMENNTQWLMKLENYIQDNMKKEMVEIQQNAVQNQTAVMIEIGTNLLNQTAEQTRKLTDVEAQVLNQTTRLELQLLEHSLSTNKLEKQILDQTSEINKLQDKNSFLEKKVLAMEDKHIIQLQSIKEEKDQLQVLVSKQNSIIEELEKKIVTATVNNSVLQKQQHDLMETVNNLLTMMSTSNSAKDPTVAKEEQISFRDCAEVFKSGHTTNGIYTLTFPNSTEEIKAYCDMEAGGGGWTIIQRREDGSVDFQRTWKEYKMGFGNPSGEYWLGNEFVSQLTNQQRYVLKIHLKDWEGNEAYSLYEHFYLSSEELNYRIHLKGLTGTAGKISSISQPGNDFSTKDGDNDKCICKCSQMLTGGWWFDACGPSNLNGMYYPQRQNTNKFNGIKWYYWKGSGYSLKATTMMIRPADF

T3: Mouse/Human Ang-2 StuI chimeric molecule (mouse; human, UniProt O35608 19-496)
T3 construct: also called M/H Stul 310-496
T3 chain: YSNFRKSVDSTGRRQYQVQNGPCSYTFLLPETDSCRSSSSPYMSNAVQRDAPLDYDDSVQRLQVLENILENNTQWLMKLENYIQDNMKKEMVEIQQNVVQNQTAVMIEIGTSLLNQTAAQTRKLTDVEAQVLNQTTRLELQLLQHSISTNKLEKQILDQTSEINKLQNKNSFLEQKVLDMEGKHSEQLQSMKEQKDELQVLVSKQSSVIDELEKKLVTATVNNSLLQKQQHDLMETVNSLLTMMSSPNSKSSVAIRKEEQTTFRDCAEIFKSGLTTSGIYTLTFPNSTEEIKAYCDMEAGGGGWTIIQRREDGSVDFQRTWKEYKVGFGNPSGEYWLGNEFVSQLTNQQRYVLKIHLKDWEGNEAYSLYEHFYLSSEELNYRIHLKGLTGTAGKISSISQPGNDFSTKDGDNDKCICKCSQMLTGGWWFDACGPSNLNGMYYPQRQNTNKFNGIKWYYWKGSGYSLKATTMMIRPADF

T4: Human Ang-1/2 BsmI chimeric molecule (human)
T4 chain: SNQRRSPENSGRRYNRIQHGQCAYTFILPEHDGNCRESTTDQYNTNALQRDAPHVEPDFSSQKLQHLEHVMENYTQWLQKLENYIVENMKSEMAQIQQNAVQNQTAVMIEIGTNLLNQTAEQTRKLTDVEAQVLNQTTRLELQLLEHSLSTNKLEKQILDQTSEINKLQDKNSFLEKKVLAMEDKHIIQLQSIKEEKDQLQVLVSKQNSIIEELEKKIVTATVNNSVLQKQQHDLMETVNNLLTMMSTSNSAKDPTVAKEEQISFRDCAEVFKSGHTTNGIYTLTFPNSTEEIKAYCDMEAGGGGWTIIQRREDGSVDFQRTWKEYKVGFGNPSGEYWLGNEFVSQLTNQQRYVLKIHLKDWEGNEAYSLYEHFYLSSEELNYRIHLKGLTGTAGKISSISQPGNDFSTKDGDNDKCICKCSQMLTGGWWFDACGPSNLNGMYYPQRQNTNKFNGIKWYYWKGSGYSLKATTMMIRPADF

T5: human Angiopoietin-1 (human, UniProt Q15389 20-498, limits assumed)
T5 construct: Bought recombinant protein (R&D Systems 293-AN-025/CF) or supernatant of transfected 293F cells; also called Ang-1; recombinant Ang-1
T5 sequence: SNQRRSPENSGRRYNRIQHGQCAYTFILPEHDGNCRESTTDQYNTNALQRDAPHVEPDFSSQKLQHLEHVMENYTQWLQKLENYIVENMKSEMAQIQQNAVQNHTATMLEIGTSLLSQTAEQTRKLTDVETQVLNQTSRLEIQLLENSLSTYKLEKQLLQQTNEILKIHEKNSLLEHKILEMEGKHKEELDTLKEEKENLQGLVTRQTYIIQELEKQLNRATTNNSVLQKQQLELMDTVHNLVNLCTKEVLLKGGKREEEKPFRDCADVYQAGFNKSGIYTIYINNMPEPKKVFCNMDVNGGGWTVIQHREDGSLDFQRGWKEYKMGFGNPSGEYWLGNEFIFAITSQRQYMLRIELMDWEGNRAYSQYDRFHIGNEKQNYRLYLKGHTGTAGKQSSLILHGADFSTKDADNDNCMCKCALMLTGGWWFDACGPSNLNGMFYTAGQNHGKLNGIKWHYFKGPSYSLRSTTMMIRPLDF


Assays:
human Ang-2443 = target: T1, human Ang-2443; test: ELISA
human Ang-2 V345M = target: T2, human Ang-2 V345M; test: ELISA
[1] = target: T3, Mouse/Human Ang-2 StuI chimeric molecule; test: ELISA
[2] = target: T4, Human Ang-1/2 BsmI chimeric molecule; test: ELISA
human Angiopoietin-1 = target: T5, human Angiopoietin-1; test: capture ELISA
Method: The binding of the top 27 human monoclonal antibodies was detected with a HRP-conjugated goat anti-human antibody, followed by colorimetric horseradish peroxidase substrate (Enhanced K-Blue TMB substrate Neogen Corporation). The absorbance of each well of the ELISA plates was measured at 450 nm on a microplate autoreader.

Binder	% of binding to human Ang-2 (human Ang-2443) [%]	% of binding to human Ang-2 (human Ang-2 V345M) [%]	% of binding to human Ang-2 [1] [%]	% of binding to human Ang-2 [2] [%]	binding result (human Angiopoietin-1)
mAb 5.28.1 (antibody, V domains shown, Human hybridoma IgG (XenoMouse); also called x5.28) VH: EVQLVESGGIVVQPGGSLRLSCAASGFTFDDYTMHWVRQTPGKGLEWVSLISWDGGSTYYADSVKGRFTISRDNSKNSLYLQMNSLRTEDTALYYCAKDIDIAVAGTGFDHWGQGTLVTVSS VL: EIVMTQSPATLSVSPGERATLSCRASQSVTSNLAWYQQKPGQAPRLLIYGALIRATGIPARFSGSGSGTEFTLTISSLQSEDFAVYYCQQYNNWPFTFGPGTKVDIKR	100	100	100	100	no binding
mAb 5.35.1 (antibody, V domains shown, Human hybridoma IgG (XenoMouse); also called x5.35) VH: EVQLVESGGGVVRPGGSLRLSCTTSGFTFDDYGMSWVRQAPGKGLEWVSGINWNGGSTVYADSVKGRFTISRDSAKNSLYLQMNSLRAEDTALYHCARNKQWLWYFDLWGRGTLVTVSS VL: EIVMTQSPATLSVSPGERATLSCRASQSVSSNLAWYQQKPGQAPRLLIYGASTRATGIPARFSGSGSGTEFTLTISSLQSEDFAVYYCEQYNNWPLTFGGGTKVEIKR	100	100	100	100	no binding
mAb 5.103.1 (antibody, V domains shown, Human hybridoma IgG (XenoMouse); also called 5.103.3; x5.103) VH: QVQLVQSGAEVKKPGASVKVSCKASGYTFTGYYLYWVPQAPGQGLEWMGWISPNSGGTNYAQKFQGRVTMTRDTSISTAYMELSRLRSDDTAVYYCARDQVIAVAGPFDYWAQGTLVTVSS VL: not shown	100	100	100	100	no binding
mAb 5.108.1 (antibody, V domains shown, Human hybridoma IgG (XenoMouse); also called x5.108) VH: QVQLVESGGGVVQPGRSLRLSCAASGFTFSSYGMHWVRQAPGKGLEWVAVIWYDGSNKYYADSVKGRFTISRDNSKNTLYLQMNSLRAEDTAMYYCARELALWGQGTLVTVSS VL: EIVMTQSPATLSVSPGERATLSCRASQSVSSYLAWYQQKPGQAPRLLIYGAFTRATGIPARFRGSGSGPEFTLTISSLQSEDFAVYYCQQYSHWWTFGQGTKVEIKR	100	100	100	100	no binding
mAb 5.39.1 (antibody, V domains shown, Human hybridoma IgG (XenoMouse); also called x5.39) VH: QVQLVQSGAEVTKPGASVKVSCKASGYTFTAYHMYWVRQAPGQGLEWMGWINPNSGGTNYAQKFQGRVTMTRDTSISTAYMELSRLRSDDSPVYYCARDQGIAAAGPFDYWGQGTLVTVSS VL: EIVMTQSPATLSVSPGDRATLSCRASQSVSSNFAWYQQKPGQAPRLLIYGSSTRATGIPARFSGSGSGTEFTLTISSLQSEDFAVYYCQQYHYWWTFGQGTKVEFKR	100	100	100	100	no binding
mAb 5.40.2 (antibody, V domains shown, Human hybridoma IgG (XenoMouse); also called x5.40) VH: not shown VL: EIVMTQSPATLSVSPGERATLSCRASQSVSSNLVWYQQKPGQAPRLLIYDSSTRATGIPVRFSGSGSGTEFTLTISSLQSEDFAVYYCQQYNHWWTFGQGTKVEIKR	100	100	100	100	no binding
mAb 5.56.1 (antibody, V domains shown, Human hybridoma IgG (XenoMouse); also called x5.56) VH: QVQLVESGGGVVQPGRSLRLSCAASGFTFSSYGMHWVRQAPGKGLEWVAVIWYDGSNKYYADSVKGRFTISRDNSKNTLYLQMNSLRAEDTAVYYCAREDNWNFYFDYWGQGTLVTVSS VL: DIQMTQSPSSLSASVGDRVTITCRASQGISYYLAWYQQKPGKVPKLLIYAASTLQSGVPSRFSGSGSGTDFTLTISSLQPEDVATYYCQKYNSAPFTFGPGTKVDIKR	100	100	100	100	no binding
